Assays:
[1] = target: Bacillus anthracis protective antigen (PA) polypeptide (Bacillus anthracis, UniProt P13423 30-764); assay: Western blot and ELISA, plant-produced antibody
[2] = target: T1, Bacillus anthracis lethal factor (LF) polypeptide (Bacillus anthracis, UniProt P15917 34-809); assay: Western blot and ELISA, plant-produced antibody
T1 sequence: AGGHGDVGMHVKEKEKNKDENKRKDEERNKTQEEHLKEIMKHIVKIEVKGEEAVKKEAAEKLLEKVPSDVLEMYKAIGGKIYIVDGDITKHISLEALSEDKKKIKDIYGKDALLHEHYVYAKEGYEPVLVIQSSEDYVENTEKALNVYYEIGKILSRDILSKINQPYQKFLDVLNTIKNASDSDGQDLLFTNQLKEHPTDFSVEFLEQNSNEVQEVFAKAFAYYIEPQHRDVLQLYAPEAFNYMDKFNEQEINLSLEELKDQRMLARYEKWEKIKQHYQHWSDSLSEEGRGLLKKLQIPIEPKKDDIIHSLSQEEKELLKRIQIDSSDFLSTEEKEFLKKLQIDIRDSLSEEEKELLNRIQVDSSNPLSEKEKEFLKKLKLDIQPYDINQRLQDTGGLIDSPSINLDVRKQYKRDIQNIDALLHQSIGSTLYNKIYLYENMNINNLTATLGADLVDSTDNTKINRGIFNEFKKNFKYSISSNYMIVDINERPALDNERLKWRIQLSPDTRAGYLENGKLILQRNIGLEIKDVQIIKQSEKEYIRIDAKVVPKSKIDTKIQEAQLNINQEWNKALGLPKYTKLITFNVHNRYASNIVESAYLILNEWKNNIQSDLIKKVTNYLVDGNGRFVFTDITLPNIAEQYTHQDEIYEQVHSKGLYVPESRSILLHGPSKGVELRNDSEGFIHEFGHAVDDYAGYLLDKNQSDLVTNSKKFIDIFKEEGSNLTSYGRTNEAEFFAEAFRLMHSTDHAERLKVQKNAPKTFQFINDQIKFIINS

Chain of Bacillus anthracis protective antigen (PA) polypeptide (P13423 30-764 limits assumed): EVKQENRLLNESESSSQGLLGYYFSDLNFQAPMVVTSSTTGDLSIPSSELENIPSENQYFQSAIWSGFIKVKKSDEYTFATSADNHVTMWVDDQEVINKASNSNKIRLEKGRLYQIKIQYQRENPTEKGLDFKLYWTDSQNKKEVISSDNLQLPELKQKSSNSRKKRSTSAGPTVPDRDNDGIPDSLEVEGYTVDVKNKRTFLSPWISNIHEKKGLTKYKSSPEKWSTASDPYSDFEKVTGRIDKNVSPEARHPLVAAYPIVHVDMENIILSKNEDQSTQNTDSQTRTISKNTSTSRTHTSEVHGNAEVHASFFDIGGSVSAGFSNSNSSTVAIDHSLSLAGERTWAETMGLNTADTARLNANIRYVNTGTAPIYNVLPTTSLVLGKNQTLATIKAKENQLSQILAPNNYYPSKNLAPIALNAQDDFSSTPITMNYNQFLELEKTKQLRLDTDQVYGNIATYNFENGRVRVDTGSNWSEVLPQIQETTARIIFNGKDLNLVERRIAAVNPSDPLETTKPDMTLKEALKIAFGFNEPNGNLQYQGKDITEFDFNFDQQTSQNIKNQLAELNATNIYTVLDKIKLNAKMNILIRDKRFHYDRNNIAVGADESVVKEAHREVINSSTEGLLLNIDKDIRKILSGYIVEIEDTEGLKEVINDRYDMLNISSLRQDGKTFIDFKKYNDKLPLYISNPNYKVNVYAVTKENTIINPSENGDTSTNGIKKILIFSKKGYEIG

B1: PA-1 huMAb, plant-produced glycosylated PA antibody (antibody, V domains shown)
VH: QVQLVQSGAEVKKPGASVKVSCKASGYTFTSNAIQWVRQAPGQRLEWVGWINGGDGNTKYSQKFQGRVTISRDISASTAYMELSSLRSEDTAVYYCARHRLQRGGFDPWGQGTLVTVSS
VL: EIVLTQSPGTLSLSPGERATLSCRASQSVSYSSLAWYQQKPGQAPSLLIYGASSRATGIPDRFSGSGSGPDFTLTISRLEPEDFAVYYCQHYGNSPYTFGQGTKLEIKR
- binding result [1]: binds

B2: LF-1 huMAb, plant-produced LF antibody (antibody, V domains shown)
VH: EVQLLESGGGLVQPGGSLRLSCSGSGFMFSSYAMSWVRQAPGKGLEWVSGISGSGGTTNYADSVKGRFTISRDNSKNTLYMQMNSLRAEDTAVYYCAKDGVYGRLGGSDYWGQGTLVTVSS
VL: EIVLTQSPDFQSVSPKEKVTITCRASQSVGSSLHWYQQKPDQSPKLLIKYASQSFSGVPSRFSGSGSGTDFTLTINSLETEDAATYYCHQSSSLPLTFGGGTKVEIKR
- binding result [2]: binds
